# According to IntAct's records for PubMed 31515488:
# B1: Progranulin (Homo sapiens), P28799 (parent)
# chain: MWTLVSWVALTAGLVAGTRCPDGQFCPVACCLDPGGASYSCCRPLLDKWPTTLSRHLGGPCQVDAHCSAGHSCIFTVSGTSSCCPFPEAVACGDGHHCCPRGFHCSADGRSCFQRSGNNSVGAIQCPDSQFECPDFSTCCVMVDGSWGCCPMPQASCCEDRVHCCPHGAFCDLVHTRCITPTGTHPLAKKLPAQRTNRAVALSSSVMCPDARSRCPDGSTCCELPSGKYGCCPMPNATCCSDHLHCCPQDTVCDLIQSKCLSKENATTDLLTKLPAHTVGDVKCDMEVSCPDGYTCCRLQSGAWGCCPFTQAVCCEDHIHCCPAGFTCDTQKGTCEQGPHQVPWMEKAPAHLSLPDPQALKRDVPCDNVSSCPSSDTCCQLTSGEWGCCPIPEAVCCSDHQHCCPQGYTCVAEGQCQRGSEIVAGLEKMPARRASLSHPRDIGCDQHTSCPVGQTCCPSLGGSWACCQLPHAVCCEDRQHCCPAGYTCNVKARSCEKEVVSAQPATFLARSPHVGVKDVECGEGHFCHDNQTCCRDNRQGWACCPYRQGVCCADRRHCCPAGFRCAARGTKCLRREAPRWDAPLRDPALRQLL
# partner: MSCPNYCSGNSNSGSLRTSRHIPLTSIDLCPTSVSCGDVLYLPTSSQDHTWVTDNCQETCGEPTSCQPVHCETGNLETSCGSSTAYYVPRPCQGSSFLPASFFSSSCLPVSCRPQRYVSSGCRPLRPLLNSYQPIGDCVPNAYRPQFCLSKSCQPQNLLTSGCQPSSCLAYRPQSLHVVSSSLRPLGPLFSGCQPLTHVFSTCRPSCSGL
# B2: Hypoxanthine-guanine phosphoribosyltransferase (Homo sapiens), P00492 (parent)
# chain: MATRSPGVVISDDEPGYDLDLFCIPNHYAEDLERVFIPHGLIMDRTERLARDVMKEMGGHHIVALCVLKGGYKFFADLLDYIKALNRNSDRSIPMTVDFIRLKSYCNDQSTGDIKVIGGDDLSTLTGKNVLIVEDIIDTGKTMQTLLSLVRQYNPKMVKVASLLVKRTPRSVGYKPDFVGFEIPDKFVVGYALDYNEYFRDLNHVCVISETGKAKYKA
# B3: Zinc finger protein 774 (Homo sapiens), Q6NX45 (parent)
# chain: MWLGTSGKSGLPGHCLENPLQECHPAQLEEWALKGISRPSVISQPEQKEEPWVLPLQNFEARKIPRESHTDCEHQVAKLNQDNSETAEQCGTSSERTNKDLSHTLSWGGNWEQGLELEGQHGTLPGEGQLESFSQERDLNKLLDGYVGEKPMCAECGKSFNQSSYLIRHLRTHTGERPYTCIECGKGFKQSSDLVTHRRTHTGEKPYQCKGCEKKFSDSSTLIKHQRTHTGERPYECPECGKTFGRKPHLIMHQRTHTGEKPYACLECHKSFSRSSNFITHQRTHTGVKPYRCNDCGESFSQSSDLIKHQRTHTGERPFKCPECGKGFRDSSHFVAHMSTHSGERPFSCPDCHKSFSQSSHLVTHQRTHTGERPFKCENCGKGFADSSALIKHQRIHTGERPYKCGECGKSFNQSSHFITHQRIHLGDRPYRCPECGKTFNQRSHFLTHQRTHTGEKPFHCSKCNKSFRQKAHLLCHQNTHLI
# partner: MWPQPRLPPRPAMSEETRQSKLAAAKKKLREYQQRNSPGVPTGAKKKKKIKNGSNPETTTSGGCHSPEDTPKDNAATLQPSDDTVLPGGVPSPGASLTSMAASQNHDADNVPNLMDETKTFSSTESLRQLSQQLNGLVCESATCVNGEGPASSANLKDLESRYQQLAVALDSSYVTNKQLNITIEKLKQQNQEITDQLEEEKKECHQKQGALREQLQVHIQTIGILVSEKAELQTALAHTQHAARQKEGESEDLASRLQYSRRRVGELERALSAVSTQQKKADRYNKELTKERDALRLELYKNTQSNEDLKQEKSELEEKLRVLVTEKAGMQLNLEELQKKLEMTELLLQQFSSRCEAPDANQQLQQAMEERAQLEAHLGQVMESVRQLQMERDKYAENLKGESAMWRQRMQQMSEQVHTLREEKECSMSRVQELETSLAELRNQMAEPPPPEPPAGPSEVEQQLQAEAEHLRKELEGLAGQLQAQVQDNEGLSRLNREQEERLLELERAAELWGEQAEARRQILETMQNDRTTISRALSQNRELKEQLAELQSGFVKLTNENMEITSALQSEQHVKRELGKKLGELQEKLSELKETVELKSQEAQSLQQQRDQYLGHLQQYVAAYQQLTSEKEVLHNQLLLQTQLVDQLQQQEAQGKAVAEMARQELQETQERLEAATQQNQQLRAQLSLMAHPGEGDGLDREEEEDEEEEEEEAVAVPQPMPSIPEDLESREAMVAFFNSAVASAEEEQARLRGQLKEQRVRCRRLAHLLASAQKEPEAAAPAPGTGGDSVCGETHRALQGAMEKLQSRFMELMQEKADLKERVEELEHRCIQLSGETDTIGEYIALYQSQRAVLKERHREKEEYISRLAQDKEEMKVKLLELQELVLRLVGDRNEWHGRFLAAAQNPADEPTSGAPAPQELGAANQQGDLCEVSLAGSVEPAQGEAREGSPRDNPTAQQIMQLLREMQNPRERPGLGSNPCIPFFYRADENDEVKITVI
# B4: Sperm surface protein Sp17 (Homo sapiens), Q15506 (parent)
# chain: MSIPFSNTHYRIPQGFGNLLEGLTREILREQPDNIPAFAAAYFESLLEKREKTNFDPAEWGSKVEDRFYNNHAFEEQEPPEKSDPKQEESQISGKEEETSVTILDSSEEDKEKEEVAAVKIQAAFRGHIAREEAKKMKTNSLQNEEKEENK
# B5: Myeloid leukemia factor 1 (Homo sapiens), P58340 (parent)
# chain: MFRMLNSSFEDDPFFSESILAHRENMRQMIRSFSEPFGRDLLSISDGRGRAHNRRGHNDGEDSLTHTDVSSFQTMDQMVSNMRNYMQKLERNFGQLSVDPNGHSFCSSSVMTYSKIGDEPPKVFQASTQTRRAPGGIKETRKAMRDSDSGLEKMAIGHHIHDRAHVIKKSKNKKTGDEEVNQEFINMNESDAHAFDEEWQSEVLKYKPGRHNLGNTRMRSVGHENPGSRELKRREKPQQSPAIEHGRRSNVLGDKLHIKGSSVKSNKK
# partner: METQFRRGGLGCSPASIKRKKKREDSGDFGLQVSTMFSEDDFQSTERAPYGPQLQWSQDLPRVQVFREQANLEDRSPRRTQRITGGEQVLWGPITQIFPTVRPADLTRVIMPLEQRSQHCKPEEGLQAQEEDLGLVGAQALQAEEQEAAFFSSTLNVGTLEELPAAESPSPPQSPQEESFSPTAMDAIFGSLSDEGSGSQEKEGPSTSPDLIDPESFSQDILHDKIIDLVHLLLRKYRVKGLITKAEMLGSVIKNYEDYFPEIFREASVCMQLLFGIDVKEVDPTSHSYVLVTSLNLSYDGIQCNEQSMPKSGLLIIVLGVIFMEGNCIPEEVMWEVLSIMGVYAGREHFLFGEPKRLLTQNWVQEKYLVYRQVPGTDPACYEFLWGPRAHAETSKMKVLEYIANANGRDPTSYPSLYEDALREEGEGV
# B6: Calcium-binding and coiled-coil domain-containing protein 2 (Homo sapiens), Q13137 (parent)
# chain: MEETIKDPPTSAVLLDHCHFSQVIFNSVEKFYIPGGDVTCHYTFTQHFIPRRKDWIGIFRVGWKTTREYYTFMWVTLPIDLNNKSAKQQEVQFKAYYLPKDDEYYQFCYVDEDGVVRGASIPFQFRPENEEDILVVTTQGEVEEIEQHNKELCKENQELKDSCISLQKQNSDMQAELQKKQEELETLQSINKKLELKVKEQKDYWETELLQLKEQNQKMSSENEKMGIRVDQLQAQLSTQEKEMEKLVQGDQDKTEQLEQLKKENDHLFLSLTEQRKDQKKLEQTVEQMKQNETTAMKKQQELMDENFDLSKRLSENEIICNALQRQKERLEGENDLLKRENSRLLSYMGLDFNSLPYQVPTSDEGGARQNPGLAYGNPYSGIQESSSPSPLSIKKCPICKADDICDHTLEQQQMQPLCFNCPICDKIFPATEKQIFEDHVFCHSL
# B7: Cancer/testis antigen 2 (Homo sapiens), O75638 (parent)
# chain: MQAEGRGTGGSTGDADGPGGPGIPDGPGGNAGGPGEAGATGGRGPRGAGAARASGPRGGAPRGPHGGAASAQDGRCPCGARRPDSRLLELHITMPFSSPMEAELVRRILSRDAAPLPRPGAVLKDFTVSGNLLFMSVRDQDREGAGRMRVVGWGLGSASPEGQKARDLRTPKHKVSEQRPGTPGPPPPEGAQGDGCRGVAFNVMFSAPHI
# Variants of: B1
# Conditions: with kr261_human KRTAP26-1, Q6PEX3
row,Variant,effect of a mutation on the interaction
1,G515A,with no effect

# Variants of: B2
# Conditions: with sdcb1_human SDCBP
row,Variant,effect of a mutation on the interaction
1,C206Y,disrupting interaction strength
2,P38S,disrupting interaction strength

# Variants of: B2
# Conditions: with iscu_human ISCU
row,Variant,effect of a mutation on the interaction
1,C206Y,disrupting interaction strength
2,P38S,disrupting interaction strength

# Variants of: B2
# Conditions: with prdc1_human PRTFDC1, Q9NRG1
# Chain of prdc1_human PRTFDC1, Q9NRG1 (Q9NRG1 whole entry): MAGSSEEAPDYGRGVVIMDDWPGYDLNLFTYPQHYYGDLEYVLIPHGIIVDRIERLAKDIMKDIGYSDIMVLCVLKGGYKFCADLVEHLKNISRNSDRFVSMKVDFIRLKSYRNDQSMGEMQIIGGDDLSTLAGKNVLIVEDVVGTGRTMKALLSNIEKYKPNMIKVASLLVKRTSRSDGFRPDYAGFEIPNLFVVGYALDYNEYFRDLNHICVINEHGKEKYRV
row,Variant,effect of a mutation on the interaction
1,C206Y,with no effect
2,P38S,with no effect

# Variants of: B2
# Conditions: with ntaq1_human NTAQ1, Q96HA8
row,Variant,effect of a mutation on the interaction
1,C206Y,disrupting interaction strength
2,P38S,disrupting interaction strength

# Variants of: B3
# Conditions: with goga2_human GOLGA2, Q08379
row,Variant,effect of a mutation on the interaction
1,P65L,with no effect

# Variants of: B4
# Conditions: with aka7g_human AKAP7, Q9P0M2
# Chain of aka7g_human AKAP7, Q9P0M2 (Q9P0M2 whole entry): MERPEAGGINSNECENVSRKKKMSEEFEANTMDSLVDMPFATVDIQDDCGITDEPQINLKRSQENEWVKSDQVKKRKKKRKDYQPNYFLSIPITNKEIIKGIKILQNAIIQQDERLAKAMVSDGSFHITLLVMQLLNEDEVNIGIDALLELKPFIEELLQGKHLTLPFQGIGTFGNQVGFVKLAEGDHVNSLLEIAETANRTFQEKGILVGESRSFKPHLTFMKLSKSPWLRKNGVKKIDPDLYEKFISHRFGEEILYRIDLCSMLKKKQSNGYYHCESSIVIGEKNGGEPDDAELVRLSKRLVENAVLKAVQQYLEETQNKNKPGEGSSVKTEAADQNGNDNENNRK
row,Variant,effect of a mutation on the interaction
1,R126Q,disrupting interaction strength

# Variants of: B5
# Conditions: with magab_human MAGEA11, P43364
row,Variant,effect of a mutation on the interaction
1,P226T,with no effect

# Variants of: B6
# Conditions: with leg8_human LGALS8, O00214
# Chain of leg8_human LGALS8, O00214 (O00214 whole entry): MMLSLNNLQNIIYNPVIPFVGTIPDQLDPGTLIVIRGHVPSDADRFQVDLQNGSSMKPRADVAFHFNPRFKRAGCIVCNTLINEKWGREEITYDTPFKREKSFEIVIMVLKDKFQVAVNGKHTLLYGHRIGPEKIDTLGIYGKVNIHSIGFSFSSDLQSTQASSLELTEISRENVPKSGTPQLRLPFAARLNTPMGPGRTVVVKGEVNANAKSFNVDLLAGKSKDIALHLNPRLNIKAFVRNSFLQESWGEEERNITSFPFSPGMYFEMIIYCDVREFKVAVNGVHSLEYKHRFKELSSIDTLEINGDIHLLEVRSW
row,Variant,effect of a mutation on the interaction
1,P389A,with no effect
2,E222K,with no effect
3,T255A,with no effect
4,T273A,with no effect

# Variants of: B6
# Conditions: with tcl1a_human TCL1A
row,Variant,effect of a mutation on the interaction
1,P389A,with no effect
2,E222K,with no effect
3,T273A,with no effect

# Variants of: B6
# Conditions: with dus12_human DUSP12, Q9UNI6
# Chain of dus12_human DUSP12, Q9UNI6 (Q9UNI6 whole entry): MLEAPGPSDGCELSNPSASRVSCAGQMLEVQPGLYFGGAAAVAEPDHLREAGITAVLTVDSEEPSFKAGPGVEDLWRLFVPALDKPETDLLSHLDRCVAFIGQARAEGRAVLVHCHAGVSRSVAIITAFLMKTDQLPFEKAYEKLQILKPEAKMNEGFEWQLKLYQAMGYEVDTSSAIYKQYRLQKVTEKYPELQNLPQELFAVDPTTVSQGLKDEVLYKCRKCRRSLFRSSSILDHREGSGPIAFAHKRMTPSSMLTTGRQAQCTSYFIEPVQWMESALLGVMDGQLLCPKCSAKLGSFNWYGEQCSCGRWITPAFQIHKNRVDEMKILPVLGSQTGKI
row,Variant,effect of a mutation on the interaction
1,P389A,with no effect
2,T273A,with no effect

# Variants of: B6
# Conditions: with smrd1_human SMARCD1, Q96GM5
# Chain of smrd1_human SMARCD1, Q96GM5 (Q96GM5 whole entry): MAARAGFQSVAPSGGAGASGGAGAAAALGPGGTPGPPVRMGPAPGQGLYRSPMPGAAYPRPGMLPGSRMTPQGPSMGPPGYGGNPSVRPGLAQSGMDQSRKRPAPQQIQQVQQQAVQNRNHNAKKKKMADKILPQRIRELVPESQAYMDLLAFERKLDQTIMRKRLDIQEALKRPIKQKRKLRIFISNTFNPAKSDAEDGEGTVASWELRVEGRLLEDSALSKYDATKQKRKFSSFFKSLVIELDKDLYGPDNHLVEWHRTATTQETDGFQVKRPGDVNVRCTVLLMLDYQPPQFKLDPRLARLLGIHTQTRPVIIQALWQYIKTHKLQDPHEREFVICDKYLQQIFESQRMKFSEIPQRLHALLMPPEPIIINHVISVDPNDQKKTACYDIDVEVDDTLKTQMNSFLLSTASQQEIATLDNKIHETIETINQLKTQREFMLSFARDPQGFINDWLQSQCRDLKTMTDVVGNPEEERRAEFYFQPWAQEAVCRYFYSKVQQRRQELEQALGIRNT
row,Variant,effect of a mutation on the interaction
1,E222K,with no effect

# Variants of: B6
# Conditions: with tekt3_human TEKT3, Q9BXF9
# Chain of tekt3_human TEKT3, Q9BXF9 (Q9BXF9 whole entry): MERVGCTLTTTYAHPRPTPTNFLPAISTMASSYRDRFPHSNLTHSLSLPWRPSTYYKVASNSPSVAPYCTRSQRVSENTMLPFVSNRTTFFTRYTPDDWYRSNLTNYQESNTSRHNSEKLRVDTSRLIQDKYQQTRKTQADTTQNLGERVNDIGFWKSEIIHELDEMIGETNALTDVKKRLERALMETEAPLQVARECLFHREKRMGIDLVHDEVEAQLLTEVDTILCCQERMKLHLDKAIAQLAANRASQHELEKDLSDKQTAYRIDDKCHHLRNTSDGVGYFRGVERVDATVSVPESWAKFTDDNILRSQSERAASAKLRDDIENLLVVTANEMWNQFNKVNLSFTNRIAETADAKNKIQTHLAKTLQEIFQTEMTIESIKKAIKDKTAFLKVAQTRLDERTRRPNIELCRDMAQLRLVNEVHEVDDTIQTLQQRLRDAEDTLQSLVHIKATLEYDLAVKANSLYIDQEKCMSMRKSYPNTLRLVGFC
row,Variant,effect of a mutation on the interaction
1,V248A,with no effect

# Variants of: B7
# Conditions: with ubql1_human UBQLN1, Q9UMX0
# Chain of ubql1_human UBQLN1, Q9UMX0 (Q9UMX0 whole entry): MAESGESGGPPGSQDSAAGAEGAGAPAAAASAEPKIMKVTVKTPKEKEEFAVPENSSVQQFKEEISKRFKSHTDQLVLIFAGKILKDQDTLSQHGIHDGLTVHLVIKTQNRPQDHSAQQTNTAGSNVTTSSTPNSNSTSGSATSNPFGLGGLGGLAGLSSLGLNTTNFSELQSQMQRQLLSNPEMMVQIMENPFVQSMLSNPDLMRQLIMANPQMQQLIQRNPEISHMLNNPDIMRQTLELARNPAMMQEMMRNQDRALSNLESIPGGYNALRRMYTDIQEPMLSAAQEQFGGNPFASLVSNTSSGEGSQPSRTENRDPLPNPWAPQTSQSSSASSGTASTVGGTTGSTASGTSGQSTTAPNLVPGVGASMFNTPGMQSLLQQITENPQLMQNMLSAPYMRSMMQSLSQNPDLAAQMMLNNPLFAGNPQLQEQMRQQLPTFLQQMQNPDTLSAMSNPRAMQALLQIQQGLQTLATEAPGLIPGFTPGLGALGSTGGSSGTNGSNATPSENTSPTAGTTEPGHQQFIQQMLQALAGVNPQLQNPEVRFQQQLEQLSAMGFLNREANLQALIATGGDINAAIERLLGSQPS
row,Variant,effect of a mutation on the interaction
1,A80T,with no effect

# Variants of: B7
# Conditions: with trip6_human TRIP6, Q15654
# Chain of trip6_human TRIP6, Q15654 (Q15654 whole entry): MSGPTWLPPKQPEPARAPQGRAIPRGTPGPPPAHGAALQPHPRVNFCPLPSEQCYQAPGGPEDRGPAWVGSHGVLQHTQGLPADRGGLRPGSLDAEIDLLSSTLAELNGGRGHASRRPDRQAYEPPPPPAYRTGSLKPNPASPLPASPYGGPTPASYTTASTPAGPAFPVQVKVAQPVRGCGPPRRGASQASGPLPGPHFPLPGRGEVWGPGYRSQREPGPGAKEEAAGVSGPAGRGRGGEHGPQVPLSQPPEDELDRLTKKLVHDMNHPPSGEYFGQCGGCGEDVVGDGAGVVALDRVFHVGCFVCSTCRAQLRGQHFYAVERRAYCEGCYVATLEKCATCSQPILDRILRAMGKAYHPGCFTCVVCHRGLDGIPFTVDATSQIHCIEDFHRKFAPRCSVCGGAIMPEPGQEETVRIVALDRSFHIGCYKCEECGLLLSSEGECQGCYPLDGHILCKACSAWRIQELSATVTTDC
row,Variant,effect of a mutation on the interaction
1,A80T,with no effect
